From article PMC2935179
Read-outs that look alike come from different tables or passages of the source.

T1: Δ22 (FLI portion of EWS/FLI);FLI ETS domain (;, UniProt Q01543;Q01543 220-452;270-371, |)
T1 sequence 1: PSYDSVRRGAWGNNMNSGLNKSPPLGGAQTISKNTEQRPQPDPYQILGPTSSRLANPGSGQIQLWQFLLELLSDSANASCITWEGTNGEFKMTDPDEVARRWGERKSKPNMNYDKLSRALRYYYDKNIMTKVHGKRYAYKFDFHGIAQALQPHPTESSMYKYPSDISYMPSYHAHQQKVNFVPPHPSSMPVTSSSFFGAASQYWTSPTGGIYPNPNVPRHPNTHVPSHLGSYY
T1 sequence 2: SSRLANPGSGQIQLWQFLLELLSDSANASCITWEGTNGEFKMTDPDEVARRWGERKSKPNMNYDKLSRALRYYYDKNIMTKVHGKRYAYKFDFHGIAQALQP

T2: Δ22 (FLI portion of EWS/FLI) (UniProt Q01543 220-452)
T2 sequence: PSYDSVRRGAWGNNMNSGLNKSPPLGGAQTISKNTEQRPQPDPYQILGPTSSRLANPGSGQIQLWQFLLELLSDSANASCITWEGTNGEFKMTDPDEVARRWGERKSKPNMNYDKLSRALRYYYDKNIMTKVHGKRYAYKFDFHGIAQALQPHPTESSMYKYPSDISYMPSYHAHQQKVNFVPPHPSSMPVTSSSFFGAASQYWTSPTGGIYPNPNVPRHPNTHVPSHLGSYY

T3: ETS1 (UniProt P14921 1-441)
T3 sequence: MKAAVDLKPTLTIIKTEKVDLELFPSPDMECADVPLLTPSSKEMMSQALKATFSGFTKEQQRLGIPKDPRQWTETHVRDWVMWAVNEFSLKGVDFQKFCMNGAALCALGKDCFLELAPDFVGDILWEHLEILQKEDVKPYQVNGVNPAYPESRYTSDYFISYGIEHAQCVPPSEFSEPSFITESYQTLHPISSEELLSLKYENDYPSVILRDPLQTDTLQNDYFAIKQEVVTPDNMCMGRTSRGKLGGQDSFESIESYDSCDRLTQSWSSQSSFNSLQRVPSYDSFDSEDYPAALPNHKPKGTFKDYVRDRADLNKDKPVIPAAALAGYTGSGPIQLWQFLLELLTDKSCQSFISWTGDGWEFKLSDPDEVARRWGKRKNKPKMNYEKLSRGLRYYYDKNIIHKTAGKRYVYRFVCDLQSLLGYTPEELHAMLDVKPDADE


Assays:
[1] = target: T1, Δ22 (FLI portion of EWS/FLI);FLI ETS …; experiment: EMSA
[2] = target: T2, Δ22 (FLI portion of EWS/FLI); experiment: fluorescence polarization stoichiometry
[3] = target: T1, Δ22 (FLI portion of EWS/FLI);FLI ETS …; experiment: EMSA; remark: listed apart in the source
ELF1 = ELF1 (UniProt P32519 1-619); experiment: EMSA
Chain of ELF1 (P32519 whole entry): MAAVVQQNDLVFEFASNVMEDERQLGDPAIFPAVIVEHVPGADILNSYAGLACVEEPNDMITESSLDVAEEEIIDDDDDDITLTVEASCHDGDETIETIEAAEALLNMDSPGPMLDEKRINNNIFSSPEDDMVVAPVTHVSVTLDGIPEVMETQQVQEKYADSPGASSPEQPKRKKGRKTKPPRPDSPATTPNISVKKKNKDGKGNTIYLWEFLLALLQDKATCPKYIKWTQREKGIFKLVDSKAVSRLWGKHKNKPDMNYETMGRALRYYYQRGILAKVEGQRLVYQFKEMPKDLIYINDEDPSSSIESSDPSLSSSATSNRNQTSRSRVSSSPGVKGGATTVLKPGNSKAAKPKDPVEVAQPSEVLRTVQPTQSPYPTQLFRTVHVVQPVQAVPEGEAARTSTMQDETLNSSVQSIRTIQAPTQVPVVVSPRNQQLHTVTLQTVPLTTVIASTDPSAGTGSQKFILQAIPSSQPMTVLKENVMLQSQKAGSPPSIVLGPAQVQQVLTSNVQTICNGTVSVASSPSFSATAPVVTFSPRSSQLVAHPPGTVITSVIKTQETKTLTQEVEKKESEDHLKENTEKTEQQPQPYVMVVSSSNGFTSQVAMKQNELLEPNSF

ETS1 = target: T3, ETS1; experiment: EMSA

Binder	binding result [1]	binding result [2]	binding result [3]	binding result (ELF1)	binding result (ETS1)
6 GGAA motifs (dsDNA) DNA 1: TGCAGGAAGGAAGGAAGGAAGGAAGGAAAGCT DNA 2: AGCTTTCCTTCCTTCCTTCCTTCCTTCCTGCA	binds	binds	–	–	–
4 GGAA motifs (dsDNA) DNA 1: TGCAGGAAGGAAGGAAGGAAAGCT DNA 2: AGCTTTCCTTCCTTCCTTCCTGCA	–	–	binds	–	–
5 GGAA motifs (dsDNA) DNA 1: TGCAGGAAGGAAGGAAGGAAGGAAAGCT DNA 2: AGCTTTCCTTCCTTCCTTCCTTCCTGCA	binds	binds	–	–	–
7 GGAA motifs (dsDNA) DNA 1: TGCAGGAAGGAAGGAAGGAAGGAAGGAAGGAAAGCT DNA 2: AGCTTTCCTTCCTTCCTTCCTTCCTTCCTTCCTGCA	binds	binds	–	binds	binds
